Results published in patent US20220403029A1 (KYMAB, published 2022).
Like-named read-outs stand apart in the source and are kept apart here.

Columns and labels:
[1] = target: T1, mouse ICOS expressed on CHO-S cells (mouse, UniProt Q9WVS0 21-141); assay: FACS screen on CHO-S cells expressing mouse ICOS
T1 construct: full length mouse ICOS (NCBI NP_059508.2) was transfected; also called mICOS CHO; Mouse ICOS CHO
T1 sequence: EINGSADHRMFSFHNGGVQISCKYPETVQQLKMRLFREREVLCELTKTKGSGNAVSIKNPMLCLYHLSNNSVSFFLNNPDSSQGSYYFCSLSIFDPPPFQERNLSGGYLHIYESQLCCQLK
Experimental: (§1) BCT supernatants and HEK293 expressed antibodies from Example 5 were tested for ability to bind to CHO-S cells expressing human or mouse ICOS.
(§2) CHO-S cells expressing human or mouse ICOS (see Example 2), were diluted in FACS buffer (PBS 1% BSA 0.1% sodium azide) and were distributed to a 96-well, V-bottom plate (Greiner) at a density of 1×10⁵ cells per well. Cells were washed with 150 μL PBS and centrifuged at 300 g for 3 minutes. For supernatant screening, supernatant was aspirated and 150 μL PBS added. This wash step was repeated. 30 μL BCT undiluted supernatant or 50 μL of reference antibody or control antibody diluted to 5 μg/ml in BCT media was added to the washed cells. Cells were incubated at 4° C. for 60 minutes. 150 μL FACS buffer was added and cells washed as described above. To detect antibody binding, 50 μL of goat anti-mouse APC (Jackson ImmunoResearch) diluted to 2 μg/ml in FACS buffer was added to cells. Cells were incubated 4° C. for 60 minutes. Cells were washed twice with 150 μL FACS buffer, centrifuging at 300 g for 3 minutes after each wash step and aspirating supernatant. Cells were fixed by addition of 25 μL 4% paraformaldehyde for 20 minutes at room temperature. Cells were washed once as above and resuspended in FACS buffer for analysis. APC signal intensity (geometric mean) was measured by flow cytometry using a BD FACS Array instrument. Data were plotted as geometric mean values without further calculation.

[2] = target: T2, human ICOS expressed on cells (human, UniProt Q9Y6W8 21-199); assay: FACS screen on CHO-S cells expressing human ICOS
T2 construct: also called hICOS CHO; Human ICOS CHO
T2 sequence: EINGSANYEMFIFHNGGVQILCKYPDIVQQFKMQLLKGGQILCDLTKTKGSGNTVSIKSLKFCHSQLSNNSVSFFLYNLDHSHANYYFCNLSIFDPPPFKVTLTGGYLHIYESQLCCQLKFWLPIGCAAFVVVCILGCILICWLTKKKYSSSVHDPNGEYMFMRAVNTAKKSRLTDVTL
Experimental: as §1, §2

[3] = target: T2, human ICOS expressed on cells; assay: flow cytometry on CHO-S cells expressing human ICOS
[4] = target: T1, mouse ICOS expressed on CHO-S cells; assay: flow cytometry on CHO-S cells expressing mouse ICOS
[5] = target: T2, human ICOS expressed on cells; assay: cell-based or functional assay
[6] = target: T2, human ICOS expressed on cells; assay: cell-based or functional assay; remark: listed apart in the source
[7] = target: T2, human ICOS expressed on cells; assay: cell-based or functional assay; remark: listed apart in the source
[8] = target: T3, mouse ICOS-mFc (Chimerigen) (mouse, UniProt Q9WVS0 21-144); assay: HTRF neutralisation of mouse B7-H2 binding to mouse ICOS-mFc, hamster IgG in the IgG4.PE series; SD 0.1 (n = 3)
T3 construct: bought; also called mouse ICOS receptor; not shown: mouse Fc of a bought reagent
T3 sequence (looked up): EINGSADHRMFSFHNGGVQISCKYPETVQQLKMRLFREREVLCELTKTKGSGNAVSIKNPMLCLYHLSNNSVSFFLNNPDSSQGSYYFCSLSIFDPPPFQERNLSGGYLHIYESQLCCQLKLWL

[9] = target: T3, mouse ICOS-mFc (Chimerigen); assay: HTRF neutralisation of mouse B7-H2 binding to mouse ICOS-mFc, IgG1 series; same result as the 6th table, row 13, column 3 with more digits
[10] = target: T3, mouse ICOS-mFc (Chimerigen); assay: HTRF neutralisation of mouse B7-H2 binding to mouse ICOS-mFc, hamster IgG in the IgG1 series; SD 0 (n = 3)
[11] = target: T4, human ICOS-mFc (Chimerigen) (human, UniProt Q9Y6W8 21-141); assay: HTRF neutralisation of human B7-H2 binding to human ICOS-mFc, hamster IgG in the IgG1 series; SD 0.3 (n = 4)
T4 construct: bought; also called human ICOS receptor; not shown: mouse Fc of a bought reagent
T4 sequence (looked up): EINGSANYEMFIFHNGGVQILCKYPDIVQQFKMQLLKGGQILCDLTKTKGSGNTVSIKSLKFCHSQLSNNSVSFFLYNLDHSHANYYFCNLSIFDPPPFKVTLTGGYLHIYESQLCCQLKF

[12] = target: T4, human ICOS-mFc (Chimerigen); assay: HTRF neutralisation of human B7-H2 binding to human ICOS-mFc, hamster IgG in the IgG4.PE series; SD 3.8 (n = 4)

B1: STIM003 as screened from BCT (mouse IgG1 constant region) (antibody, V domains shown)
VH: EVQLVESGGGVVRPGGSLRLSCVASGVTFDDYGMSWVRQAPGKGLEWVSGINWNGGDTDYSDSVKGRFTISRDNAKNSLYLQMNSLRAEDTALYYCARDFYGSGSYYHVPFDYWGQGILVTVSS
VL: EIVLTQSPGTLSLSPGERATLSCRASQSVSRSYLAWYQQKRGQAPRLLIYGASSRATGIPDRFSGDGSGTDFTLSISRLEPEDFAVYYCHQYDMSPFTFGPGTKVDIK
notes: as m28
fold above average geomean of negative control (HTK888) [1]: > 4 fold
fold above average geomean of negative control (HTK888) [2]: > 4 fold

B2: STIM004 as screened from BCT (mouse IgG1 constant region) (antibody, V domains shown)
VH: EVQLVESGGGVVRPGGSLRLSCAASGLTFDDYGMSWVRQVPGKGLEWVSGINWNGDNTDYADSVKGRFTISRDNAKNSLYLQMNSLRAEDTALYYCARDYYGSGSYYNVPFDYWGQGTLVTVSS
VL: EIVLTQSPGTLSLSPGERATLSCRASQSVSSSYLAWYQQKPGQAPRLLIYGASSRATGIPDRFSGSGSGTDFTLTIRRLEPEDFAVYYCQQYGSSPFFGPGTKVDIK
notes: as m28
fold above average geomean of negative control (HTK888) [1]: > 4 fold
fold above average geomean of negative control (HTK888) [2]: > 4 fold

B3: CL-61091 (IgG1 format) (antibody, V domains shown)
VH: QVQLMQSGTEVKKPGASVKVSCKTSGYTFTTYGITWVRQAPGQGLEWMGWISAYSGDTDYAQKFQGRVTVTTDTSTNTAYMELRSLKSDDTAVYYCARSSGWPHHYGMDVWGQGTTVTVSS
VL: DIVMTQSPLSLPVTPGEPASISCRSSQSLLHSNGFNYFDWYLQKPGQSPQLLIFLVSNRASGVPDRFSGSGSGTDFTLKISRVEAEDVGIYYCMQALQTPLTFGGGTKVEIK
notes: synthesised and expressed in human IgG1 format in HEK cells; tested as supernatant
fold above average geomean of negative control [3]: > 10 fold
fold above average geomean of negative control [4]: > 10 fold

B4: STIM001 as screened from BCT (human V regions on mouse IgG1 constant region) (antibody, V domains shown)
VH: QVQVVQSGAEVKKPGASVKVSCKASGYTFSTFGITWVRQAPGQGLEWMGWISAYNGDTNYAQNLQGRVIMTTDTSTSTAYMELRSLRSDDTAVYYCARSSGHYYYYGMDVWGQGTTVTVSS
VL: DIVMTQSPLSLPVTPGEPASISCRSSQSLLHSNEYNYLDWYLQKPGQSPQLLIFLGSNRASGVPDRFSGSGSGTDFTLKITRVEAEDVGIYYCMQSLQTPLTFGGGTKVEIK
fold above average geomean of hybrid control [1]: > 4 fold
fold above average geomean of hybrid control [2]: > 4 fold

B5: CL-74570 (IgG1 format) (antibody, V domains shown)
VH: EVQLVESGGGVIRPGGSLRLSCAASGFTFDDYGMSWVRQAPGKGLEWVSGINWIGDNTDYADSVKGRFTISRDNAKNSLYLQMNSLRAEDTALYYCARDYFGSGSYYNVPF
VL: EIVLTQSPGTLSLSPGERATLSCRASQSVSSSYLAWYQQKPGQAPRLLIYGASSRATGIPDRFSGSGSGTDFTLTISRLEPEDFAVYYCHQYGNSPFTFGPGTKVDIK
notes: as for B3
fold above average geomean of negative control [3]: > 10 fold
fold above average geomean of negative control [4]: > 10 fold

B6: STIM005 as screened from BCT (mouse IgG1 constant region) (antibody, V domains shown)
VH: QVQLVQSGAEVKKPGASVKVSCKASGYTFNSYGIIWVRQAPGQGLEWMGWISVHNGNTNCAQKLQGRVTMTTDTSTSTAYMELRSLRTDDTAVYYCARAGYDILTDFSDAFDIWGHGTMVTVSS
VL: DIQMTQSPSSLSASVGDRVTITCRASQNINNFLNWYQQKEGKGPKLLIYAASSLQRGIPSTFSGSGSGTDFTLTISSLQPEDFATYICQQSYGIPWVGQGTKVEIK
notes: as m28
fold above average geomean of negative control (HTK888) [1]: > 4 fold
fold above average geomean of negative control (HTK888) [2]: > 4 fold

B7: STIM003 human IgG1 (antibody)
heavy: not shown
light: EIVLTQSPGTLSLSPGERATLSCRASQSVSRSYLAWYQQKRGQAPRLLIYGASSRATGIPDRFSGDGSGTDFTLSISRLEPEDFAVYYCHQYDMSPFTFGPGTKVDIKRTVAAPSVFIFPPSDEQLKSGTASVVCLLNNFYPREAKVQWKVDNALQSGNSQESVTEQDSKDSTYSLSSTLTLSKADYEKHKVYACEVTHQGLSSPVTKSFNRGEC
EC50, primary NK cell ADCC on MJ cells, 2 h, Donor 1 [5]: 0.00233 nM
EC50, primary NK cell ADCC on MJ cells, 2 h, Donor 2 [5]: 0.0358 nM
EC50, primary NK cell ADCC on MJ cells, 2 h, Donor 3 [5]: 0.101 nM
EC50, primary NK cell ADCC on ICOS-transfected CCRF-CEM cells, 4 h, Donor 4 [6]: ~0.003 nM
EC50, primary NK cell ADCC on ICOS-transfected CCRF-CEM cells, 4 h, Donor 5 [6]: 0.000895 nM
EC50, primary NK cell ADCC on ICOS-transfected CCRF-CEM cells, 4 h, Donor 6 [6]: 0.00103 nM

B8: STIM002-B as screened from BCT (mouse IgG1 constant region) (antibody, V domains shown)
VH: QVQLVQSGGEVKKPGASVKVSCKASGYTFTSYGFSWVRQAPGQGLEWMGWISAYNGNTNYAQKLQGRVTMTTDTSTSTAYMELRSLRSDDTAVYYCARSTYFYGSGTLYGMDVWGQGTTVTVSS
VL: DIVMTQSPLSLPVTPGEPASISCRSSQSLLHSDGYNCLDWYLQKPGQSPQLLIYLGSTRASGFPDRFSGSGSGTDFTLKISRVEAEDVGVYYCMQALQTPCSFGQGTKLEIK
notes: as m28
fold above average geomean of hybrid control [1]: > 4 fold
fold above average geomean of hybrid control [2]: > 4 fold

B9: STIM009 as screened from BCT (mouse IgG1 constant region) (antibody, V domains shown)
VH: QVQLVESGGGLVKPGGSLRLSCAASGFTFSDYYMSWIRQAPGKGLEWVSYISSSGSTIYYADSVKGRFTISRDNAKNSLYLQINSLRAEDTAVYYCARDFYDILTDSPYFYYGVDVWGQGTTVTVSS
VL: not shown
notes: as m28
fold above average geomean of hybrid control [1]: > 4 fold
fold above average geomean of hybrid control [2]: > 4 fold

B10: STIM001 human IgG1 (antibody)
heavy: not shown
light: DIVMTQSPLSLPVTPGEPASISCRSSQSLLHSNEYNYLDWYLQKPGQSPQLLIFLGSNRASGVPDRFSGSGSGTDFTLKITRVEAEDVGIYYCMQSLQTPLTFGGGTKVEIKRTVAAPSVFIFPPSDEQLKSGTASVVCLLNNFYPREAKVQWKVDNALQSGNSQESVTEQDSKDSTYSLSSTLTLSKADYEKHKVYACEVTHQGLSSPVTKSFNRGEC
EC50, primary NK cell ADCC on MJ cells, 2 h, Donor 1 [5]: 0.121 nM
EC50, primary NK cell ADCC on MJ cells, 2 h, Donor 2 [5]: 0.529 nM
EC50, primary NK cell ADCC on MJ cells, 2 h, Donor 3 [5]: 2.92 nM
EC50, primary NK cell ADCC on ICOS-transfected CCRF-CEM cells, 4 h, Donor 4 [6]: 0.00392 nM
EC50, primary NK cell ADCC on ICOS-transfected CCRF-CEM cells, 4 h, Donor 5 [6]: 0.00395 nM
EC50, primary NK cell ADCC on ICOS-transfected CCRF-CEM cells, 4 h, Donor 6 [6]: 0.00375 nM
EC50, primary NK cell ADCC on MJ cells, 2 h, Donor 1 [7]: 0.121 nM
EC50, primary NK cell ADCC on MJ cells, 2 h, Donor 2 [7]: 0.529 nM

B11: Anti-ICOS antibody C398.4A (hamster IgG) (antibody, V domains shown)
VH: EVQLVESGGGLVKPAGSLTLSCVASGFTFSDYFMHWVRQAPGKGLEWVAVIDTKSFNYATYYSDLVKGRFTVSRDDSQGMVYLQMNNLRKEDTATYYCTATIAVPYYFDYWGQGTMVTVSS
VL: DIQMTQSPSSLPASLGDRVTINCQASQDISNYLSWYQQKPGKAPKLLIYYTNLLADGVPSRFSGSGSGRDYSFTISSLESEDIGSYYCQQYYNYRTFGPGTKLEIK
IC50 [8]: 0.2 nM
IC50 [9]: 0.14 nM
IC50 [10]: 0.1 nM
IC50 [11]: 1.2 nM
IC50 [12]: 2.8 nM
